Data on five molecules can be found in US20070009989A1, “Synthetic heparanase molecules and uses thereof” (priority 2003, published 2007).

Data set [1] addresses T1, hepGS3 single chain construct produced in insect cells (Homo sapiens, UniProt Q9Y251, DEL111-157/INS109GSGSG/K307R).
T1 construct: made in house; host or cells: Sf9 insect cells (baculovirus, Bac to Bac)
T1 sequence (Q9Y251 with tags, fused parts or gaps INS109GSGSG/DEL111-157/K307R): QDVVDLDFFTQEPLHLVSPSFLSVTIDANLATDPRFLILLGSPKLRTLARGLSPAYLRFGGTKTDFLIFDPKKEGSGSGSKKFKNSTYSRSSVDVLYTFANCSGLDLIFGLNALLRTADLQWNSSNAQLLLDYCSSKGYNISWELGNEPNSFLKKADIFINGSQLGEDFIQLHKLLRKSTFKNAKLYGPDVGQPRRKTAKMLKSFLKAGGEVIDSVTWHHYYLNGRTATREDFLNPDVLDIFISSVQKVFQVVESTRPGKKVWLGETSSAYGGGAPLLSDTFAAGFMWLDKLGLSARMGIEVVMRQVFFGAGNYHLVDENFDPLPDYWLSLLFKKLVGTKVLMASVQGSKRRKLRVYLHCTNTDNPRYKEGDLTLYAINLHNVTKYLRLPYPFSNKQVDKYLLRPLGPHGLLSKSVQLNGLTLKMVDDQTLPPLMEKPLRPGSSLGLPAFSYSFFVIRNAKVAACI
Briefly: Heparin titration in the fluorimetric heparanase activity assay, hepGS3. It is filed as biochemical. The method, then: (§1) FIG. 7: Ionic strength dependence (panel A), inhibition by heparin (panel B) and pH-dependence (panel C) of wild-type heparanase produced in COS7 cells (●), hepGS3 (□) and hepHyal (▴) single chain constructs produced in insect cells using the fluorimetric activity assay.
(§2) This assay is based on the degradation of FITC-HS monitored by HPLC size exclusion chromatography. 8 μl of purified heparanase was incubated with 5 μL of FITC-HS in a 50 μl of 50 mM MES pH 6, 10% glycerol (heparanase activity buffer, HAB). The reaction mixture was incubated at room temperature for a defined period and the reaction was stopped by the addition of 50 μg of heparin. The mixture was then filtered using Ultrafree-MC centrifugal filter Devices (Millipore). 20 μl were injected on a Superdex 75™ (Pharmacia Biotech) column equilibrated in buffer 50 mM Hepes pH 7.5 150 mM Na2SO4 and connected to a Merck-Hitachi HPLC system. Fluorescent heparan sulfate degradation products were detected by an L-7485 fluorescence detector. Heparanase activity was assessed by monitoring the increase in lower molecular weight heparan sulfate species compared with the intact FITC-HS and quantified by peak area integration.

The target of data set [2] is T2, hepHyal single chain construct produced in insect cells (Homo sapiens, UniProt Q9Y251, DEL119-135/E137F/E138K/K139D/K307R/L140K/L142P/R141T/V136A).
T2 construct: made in house; host or cells: Sf9 insect cells (baculovirus, Bac to Bac)
The data set is described as follows: Heparin titration in the fluorimetric heparanase activity assay, hepHyal. It is filed as biochemical. How it is done: as §1, §2

Data set [3] has as its target T3, wild-type heparanase produced in COS7 cells (hepwt) (Homo sapiens, UniProt Q9Y251).
T3 construct: made in house; host or cells: COS7 cells, transient transfection with pcDNA3; partially purified on Heparin Sepharose
T3 sequence (Q9Y251 36-109 limits assumed): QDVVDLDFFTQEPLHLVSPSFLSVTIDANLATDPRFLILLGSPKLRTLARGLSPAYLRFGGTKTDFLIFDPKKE
T3 sequence (Q9Y251 158-543 limits assumed): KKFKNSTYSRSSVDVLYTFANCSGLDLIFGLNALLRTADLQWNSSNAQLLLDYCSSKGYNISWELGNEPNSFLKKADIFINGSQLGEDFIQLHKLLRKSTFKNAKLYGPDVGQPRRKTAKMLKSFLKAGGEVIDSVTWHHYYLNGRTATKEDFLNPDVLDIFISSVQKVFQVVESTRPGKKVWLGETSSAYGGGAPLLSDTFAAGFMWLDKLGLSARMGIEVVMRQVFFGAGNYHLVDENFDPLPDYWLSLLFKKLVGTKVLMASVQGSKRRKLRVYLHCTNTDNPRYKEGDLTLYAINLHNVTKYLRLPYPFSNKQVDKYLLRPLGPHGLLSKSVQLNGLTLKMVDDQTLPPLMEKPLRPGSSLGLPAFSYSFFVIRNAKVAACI
Briefly: Heparin titration in the fluorimetric heparanase activity assay, wild-type enzyme. It is filed as biochemical. How it is done:
as §1, §2

For data set [4] the following is noted: cited from earlier work.
For data set [5], the target named is T4, hepTEV110/158 (human heparanase with TEV cleavage sites between E109/G110 and Q157/K158).
T4 chain: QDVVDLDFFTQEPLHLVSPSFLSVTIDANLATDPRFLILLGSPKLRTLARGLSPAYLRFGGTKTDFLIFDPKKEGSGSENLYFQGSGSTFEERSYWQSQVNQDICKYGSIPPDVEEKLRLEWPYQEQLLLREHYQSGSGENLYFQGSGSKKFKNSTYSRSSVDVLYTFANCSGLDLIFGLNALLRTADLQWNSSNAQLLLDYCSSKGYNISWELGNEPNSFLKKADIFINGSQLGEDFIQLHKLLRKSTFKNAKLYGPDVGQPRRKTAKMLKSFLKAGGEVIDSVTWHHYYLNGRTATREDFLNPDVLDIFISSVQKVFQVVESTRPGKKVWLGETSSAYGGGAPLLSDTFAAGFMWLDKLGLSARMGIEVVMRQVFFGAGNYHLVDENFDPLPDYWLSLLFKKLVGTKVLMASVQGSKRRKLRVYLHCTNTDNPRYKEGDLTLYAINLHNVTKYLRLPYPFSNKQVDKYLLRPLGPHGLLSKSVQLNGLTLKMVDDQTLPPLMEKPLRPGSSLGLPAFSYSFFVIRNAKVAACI

Data set [6] has as its target T5, hepTEV110 (human heparanase with a TEV cleavage site E109-GSGSENLYFQ-GSG-G110 inserted between E109 and G110).
T5 chain: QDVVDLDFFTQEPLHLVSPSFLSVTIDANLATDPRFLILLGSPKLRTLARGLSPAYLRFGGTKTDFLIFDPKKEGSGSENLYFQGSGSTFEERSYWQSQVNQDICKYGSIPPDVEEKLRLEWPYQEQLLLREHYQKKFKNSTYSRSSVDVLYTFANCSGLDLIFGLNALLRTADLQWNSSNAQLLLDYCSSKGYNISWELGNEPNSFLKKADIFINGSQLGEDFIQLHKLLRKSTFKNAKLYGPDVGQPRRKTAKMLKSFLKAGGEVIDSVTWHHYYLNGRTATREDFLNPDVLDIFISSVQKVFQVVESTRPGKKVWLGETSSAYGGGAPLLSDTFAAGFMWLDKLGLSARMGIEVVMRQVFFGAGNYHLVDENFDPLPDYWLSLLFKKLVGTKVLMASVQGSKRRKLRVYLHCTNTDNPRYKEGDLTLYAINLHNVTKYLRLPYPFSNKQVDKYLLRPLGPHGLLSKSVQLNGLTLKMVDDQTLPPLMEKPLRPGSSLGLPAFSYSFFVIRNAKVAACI

Data set [7] is described as follows: Heparanase activation of TEV cleavage site constructs by digestion with TEV protease. It is filed as biochemical. Particulars: overnight at room temperature, TEV protease 0.5 μM, 50 mM Mes pH 6.0. The method, then: Heparanase activity of these samples was assessed using the fluorimetric method.
The constructs having TEV cleavage sites at positions 109/110 and 109/110+157/158 were expressed, purified on a heparin affinity column and digested overnight at room temperature with TEV protease (0.5 μM) in 50 mM Mes pH 6.0, 10% glycerol, 0.5 mM EDTA.
as §2

T2 sequence (Q9Y251 other isoform, or with tags, fused parts or gaps DEL119-135/V136A/E137F/E138K/K139D/L140K/R141T/L142P/K307R): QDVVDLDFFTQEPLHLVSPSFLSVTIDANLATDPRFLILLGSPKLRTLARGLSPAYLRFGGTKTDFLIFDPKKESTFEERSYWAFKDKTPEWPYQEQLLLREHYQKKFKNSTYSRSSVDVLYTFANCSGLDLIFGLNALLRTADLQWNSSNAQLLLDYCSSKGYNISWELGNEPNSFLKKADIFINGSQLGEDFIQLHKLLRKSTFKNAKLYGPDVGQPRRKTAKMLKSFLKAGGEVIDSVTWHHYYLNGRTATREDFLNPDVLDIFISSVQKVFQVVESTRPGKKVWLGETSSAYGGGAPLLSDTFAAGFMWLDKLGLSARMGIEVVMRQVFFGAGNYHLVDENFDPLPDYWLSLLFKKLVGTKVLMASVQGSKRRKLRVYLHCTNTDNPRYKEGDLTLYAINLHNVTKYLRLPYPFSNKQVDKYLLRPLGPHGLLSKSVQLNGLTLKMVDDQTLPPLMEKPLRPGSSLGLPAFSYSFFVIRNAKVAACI

Consider heparin, for which, in data set [1], the “IC50 of heparin, hepGS3” value is 1.1 ng/µL. For the same molecule, the “IC50 of heparin, hepHyal” value in data set [2] was determined as 1.5 ng/µL. Further, in data set [3], the “IC50 of heparin, hepwt” value was found to be 0.9 ng/µL.

B1: 50 kDa protein: mature 50 kDa human heparanase fragment, SEQ ID NO:16 (protein)
chain: KKFKNSTYSRSSVDVLYTFANCSGLDLIFGLNALLRTADLQWNSSNAQLLLDYCSSKGYNISWELGNEPNSFLKKADIFINGSQLGEDFIQLHKLLRKSTFKNAKLYGPDVGQPRRKTAKMLKSFLKAGGEVIDSVTWHHYYLNGRTATREDFLNPDVLDIFISSVQKVFQVVESTRPGKKVWLGETSSAYGGGAPLLSDTFAAGFMWLDKLGLSARMGIEVVMRQVFFGAGNYHLVDENFDPLPDYWLSLLFKKLVGTKVLMASVQGSKRRKLRVYLHCTNTDNPRYKEGDLTLYAINLHNVTKYLRLPYPFSNKQVDKYLLRPLGPHGLLSKSVQLNGLTLKMVDDQTLPPLMEKPLRPGSSLGLPAFSYSFFVIRNAKVAACI
modifications: Human
With B1, the “activity if expressed as such in mammalian cells” value in data set [4] (Hulett et al. 1999) was “inactive”. The “specific activity relative to the unprocessed 65 kDa precursor” value in data set [4] (Vlodavsky et al. 1999) is “at least 100 fold”.

B2: tobacco etch virus (TEV) protease (protein)
chain: GESLFKGPRDYNPISSTICHLTNESDGHTTSLYGIGFGPFIITNKHLFRRNNGTLLVQSLHGVFKVKNTTTLQQHLIDGRDMIIIRMPKDFPPFPQKLKFREPQREERICLVTTNFQTKSMSSMVSDTSCTFPSSDGIFWKHWIQTKDGQCGSPLVSTRDGFIVGIHSASNFTNTNNYFTSVPKNFMELLTNQEAQQWVSGWRLNADSVLWGGHKVFMSKPEEPFQPVKEATQLMNELVYSQ
For the molecule B2, the “proteolytic processing by TEV protease (overnight digestion, Western blot)” value in data set [5] and in data set [6] was “Complete processing was observed in both cases” each time.

B3: 109/110+157/158: heparanase with TEV cleavage sites between E109/G110 and Q157/K158, SEQ ID NOs:29 and 32 (protein)
chain: QDVVDLDFFTQEPLHLVSPSFLSVTIDANLATDPRFLILLGSPKLRTLARGLSPAYLRFGGTKTDFLIFDPKKEGSGSENLYFQGSGSTFEERSYWQSQVNQDICKYGSIPPDVEEKLRLEWPYQEQLLLREHYQSGSGENLYFQGSGSKKFKNSTYSRSSVDVLYTFANCSGLDLIFGLNALLRTADLQWNSSNAQLLLDYCSSKGYNISWELGNEPNSFLKKADIFINGSQLGEDFIQLHKLLRKSTFKNAKLYGPDVGQPRRKTAKMLKSFLKAGGEVIDSVTWHHYYLNGRTATREDFLNPDVLDIFISSVQKVFQVVESTRPGKKVWLGETSSAYGGGAPLLSDTFAAGFMWLDKLGLSARMGIEVVMRQVFFGAGNYHLVDENFDPLPDYWLSLLFKKLVGTKVLMASVQGSKRRKLRVYLHCTNTDNPRYKEGDLTLYAINLHNVTKYLRLPYPFSNKQVDKYLLRPLGPHGLLSKSVQLNGLTLKMVDDQTLPPLMEKPLRPGSSLGLPAFSYSFFVIRNAKVAACI
With B3, in data set [7], the “activation of heparanase by TEV protease treatment” value is reported as “activated”.

B4: 109/110: heparanase with TEV protease cleavage site between E109 and G110, protein SEQ ID NO:31 (protein)
chain: MLLRSKPALPPPLMLLLLGPLGPLSPGALPRPAQAQDVVDLDFFTQEPLHLVSPSFLSVTIDANLATDPRFLILLGSPKLRTLARGLSPAYLRFGGTKTDFLIFDPKKEGSGSENLYFQGSGSTFEERSYWQSQVNQDICKYGSIPPDVEEKLRLEWPYQEQLLLREHYQKKFKNSTYSRSSVDVLYTFANCSGLDLIFGLNALLRTADLQWNSSNAQLLLDYCSSKGYNISWELGNEPNSFLKKADIFINGSQLGEDFIQLHKLLRKSTFKNAKLYGPDVGQPRRKTAKMLKSFLKAGGEVIDSVTWHHYYLNGRTATREDFLNPDVLDIFISSVQKVFQVVESTRPGKKVWLGETSSAYGGGAPLLSDTFAAGFMWLDKLGLSARMGIEVVMRQVFFGAGNYHLVDENFDPLPDYWLSLLFKKLVGTKVLMASVQGSKRRKLRVYLHCTNTDNPRYKEGDLTLYAINLHNVTKYLRLPYPFSNKQVDKYLLRPLGPHGLLSKSVQLNGLTLKMVDDQTLPPLMEKPLRPGSSLGLPAFSYSFFVIRNAKVAACI
modifications: hep TEV110
For B4, in data set [7], the “activation of heparanase by TEV protease treatment” value is recorded as “not sufficient for eliciting activation”.
